Blank lines part the entries; values can stand above or below the binder they belong to.
How the values were obtained:
[1] = target: T1, rHuman IGF-1 sR, CF (R&D Systems Cat#391-GR) (human, UniProt P08069 31-932); test: ECL Multispot (MSD) assay, antigen spotted on plate, 10 nM Fab; blank spot of this row 182
T1 construct: Bought soluble receptor; The column head prints only 'IGF-1'; also called insulin-like growth factor-1 soluble receptor

[2] = target: T2, rHuman ErbB2/Fc Chimera, CF (R&D Systems Cat#1129-ER) (human, UniProt P04626 23-652); test: as above
T2 construct: Bought reagent; also called human epidermal growth factor 2 receptor; Fc part of the bought chimera not given

[3] = target: T3, rHuman EGF R/Fc Chimera, CF (R&D Systems Cat#344-ER) (human, UniProt P00533 25-645); test: as above
T3 construct: Bought reagent; also called epidermal growth factor receptor; Fc part of the bought chimera not given

[4] = target: T4, rHuman Erythropoietin R/Fc Chimera, CF (R&D Systems Cat#963-ER) (human, UniProt P19235 25-250); test: MSD multispot ECL, antigen spotted on plate, Fab 705 nM; blank spot 483
T4 construct: Bought from R&D Systems; also called EPO R/Fc; Epo R/Fc chimera; not shown: Fc of the bought chimera
T4 sequence (looked up): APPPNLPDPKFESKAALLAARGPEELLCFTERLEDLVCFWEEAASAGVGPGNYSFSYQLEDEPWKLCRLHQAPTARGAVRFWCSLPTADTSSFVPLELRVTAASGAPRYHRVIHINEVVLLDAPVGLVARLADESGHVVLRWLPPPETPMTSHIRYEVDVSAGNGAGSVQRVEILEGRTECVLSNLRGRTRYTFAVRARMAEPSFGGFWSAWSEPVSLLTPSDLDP

[5] = target: T5, Recombinant Human DLL4 (R&D Systems Cat#1506-D4/CF) (human, UniProt Q9NR61 27-524); test: MSD multispot ECL, antigen spotted on plate, Fab 176.3 nM; blank spot 346
T5 construct: Bought from R&D Systems; also called rHuman DLL4; delta-like protein 4

[6] = target: T6, rHuman ErbB2/Fc Chimera, CF (R&D Systems Cat#1129-ER) (human, UniProt P04626 23-652); test: as above
T6 construct: Bought from R&D Systems; also called human epidermal growth factor 2 receptor (ErbB2); not shown: Fc of the bought chimera

[7] = target: T7, rHuman EGF R/Fc Chimera, CF (R&D Systems Cat#344-ER) (human, UniProt P00533 25-645); test: as above
T7 construct: Bought from R&D Systems; also called epidermal growth factor receptor (EGF R); not shown: Fc of the bought chimera

[8] = target: T8, rHuman HGF R/c-MET/Fc Chimera, CF (R&D Systems Cat#358-MT/CF) (human, UniProt P08581 25-932); test: as above
T8 construct: Bought from R&D Systems; also called HGF R/Fc; hepatocyte growth factor receptor (HGF R/c-Met); not shown: Fc of the bought chimera
T8 sequence (P08581 25-932, change not shown): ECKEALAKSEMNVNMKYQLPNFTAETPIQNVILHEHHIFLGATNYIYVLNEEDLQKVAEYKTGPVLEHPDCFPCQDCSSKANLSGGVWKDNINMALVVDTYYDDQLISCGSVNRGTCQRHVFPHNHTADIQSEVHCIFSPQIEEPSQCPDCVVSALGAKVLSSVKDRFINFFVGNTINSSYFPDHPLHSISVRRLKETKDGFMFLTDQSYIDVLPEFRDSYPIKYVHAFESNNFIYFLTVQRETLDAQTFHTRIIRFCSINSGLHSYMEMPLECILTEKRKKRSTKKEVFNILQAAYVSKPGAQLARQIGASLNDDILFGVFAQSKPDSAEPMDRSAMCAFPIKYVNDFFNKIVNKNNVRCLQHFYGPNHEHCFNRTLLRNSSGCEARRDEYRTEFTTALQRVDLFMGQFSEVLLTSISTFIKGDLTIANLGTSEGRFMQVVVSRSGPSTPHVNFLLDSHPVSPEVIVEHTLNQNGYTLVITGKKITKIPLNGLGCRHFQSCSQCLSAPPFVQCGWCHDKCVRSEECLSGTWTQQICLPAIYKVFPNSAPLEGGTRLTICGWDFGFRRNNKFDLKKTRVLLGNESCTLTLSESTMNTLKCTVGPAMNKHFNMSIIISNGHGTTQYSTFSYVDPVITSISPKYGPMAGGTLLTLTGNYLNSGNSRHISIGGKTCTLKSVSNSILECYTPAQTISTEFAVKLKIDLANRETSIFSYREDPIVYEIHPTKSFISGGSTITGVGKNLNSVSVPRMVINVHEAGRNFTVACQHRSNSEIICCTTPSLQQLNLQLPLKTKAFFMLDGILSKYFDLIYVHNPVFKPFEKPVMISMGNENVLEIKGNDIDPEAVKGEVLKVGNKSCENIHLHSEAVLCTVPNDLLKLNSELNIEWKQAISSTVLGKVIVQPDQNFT

[9] = target: T9, rHuman Notch-1/Fc Chimera, CF (R&D Systems Cat#3647-TK) (human, UniProt P46531 19-526); test: as above
T9 construct: Bought from R&D Systems; not shown: Fc of the bought chimera

[10] = target: T10, rHuman CD44/Fc Chimera, CF (R&D Systems Cat#3660-CD) (human, UniProt P16070 21-220); test: as above
T10 construct: Bought from R&D Systems; not shown: Fc of the bought chimera

[11] = target: T11, rHuman IGF-1 sR, (IGF-1 sR), CF (R&D Systems Cat#391-GR) (human, UniProt P08069 31-932); test: as above
T11 construct: Bought from R&D Systems and called a soluble receptor; also called insulin-like growth factor-1 soluble receptor

[12] = target: T12, rHuman P-Cadherin/Fc Chimera, CF (R&D Systems Cat#861-PC) (human, UniProt P22223 108-654); test: as above
T12 construct: Bought from R&D Systems; not shown: Fc of the bought chimera

[13] = target: T4, rHuman Erythropoietin R/Fc Chimera, CF …; test: as above
[14] = target: T13, Recombinant Human DLL4 (R&D Systems Cat#1506-D4/CF) (human, UniProt Q9NR61 27-524); test: MSD Multispot ECL, antigen spotted on plate, Fab at 240 nM; blank spot 316
T13 construct: Bought recombinant protein; also called rHuman DLL4; delta-like protein 4

[15] = target: T14, rHuman Notch-1/Fc Chimera, CF (R&D Systems Cat#3647-TK) (human, UniProt P46531 19-526); test: as above
T14 construct: Bought Fc chimera; Fc part of the bought chimera not given

[16] = target: T15, rHuman CD44/Fc Chimera, CF (R&D Systems Cat#3660-CD) (human, UniProt P16070 21-220); test: as above
T15 construct: Bought Fc chimera; Fc part of the bought chimera not given

[17] = target: T16, rHuman P-Cadherin/Fc Chimera, CF (R&D Systems Cat#861-PC) (human, UniProt P22223 108-654); test: as above
T16 construct: Bought Fc chimera; Fc part of the bought chimera not given

[18] = target: T17, rHuman Erythropoietin R/Fc Chimera, CF (R&D Systems Cat#963-ER) (human, UniProt P19235 25-250); test: as above
T17 construct: Bought Fc chimera; also called EPO R/Fc; Epo R; Fc part of the bought chimera not given
T17 sequence (looked up): T4 sequence (looked up)

- ECL signal [1]: 344
- ECL signal [2]: 221
- ECL signal [3]: 296
B1: Fab VH1-46_IGHD6-6*01_IGHJ1*01 S102A/S103P/S104F (APF) & L6_IGKJ1*01 (Fab, V domains shown)
VH: QVQLVQSGAEVKKPGASVKVSCKASGYTFTSYYMHWVRQAPGQGLEWMGIINPSGGSTSYAQKFQGRVTMTRDTSTSTVYMELSSLRSEDTAVYYCAREEYAPFSAEYFQHWGQGTLVTVSS
VL: not shown
notes: Tested as a Fab made in E. coli; also called H:APF & L:wt; APF triple mutant

- ECL signal [4]: 4890
- ECL signal [5]: 460
- ECL signal [6]: 448
- ECL signal [7]: 428
- ECL signal [8]: 418
- ECL signal [9]: 664
- ECL signal [10]: 376
- ECL signal [11]: 393
- ECL signal [12]: 532
- ECL signal [13]: 3520
B2: Fab VH1-46_IGHD3-10*01_IGHJ4*01 & B3_IGKJ1*01 (Fab, V domains shown)
VH: QVQLVQSGAEVKKPGASVKVSCKASGYTFTSYYMHWVRQAPGQGLEWMGIINPSGGSTSYAQKFQGRVTMTRDTSTSTVYMELSSLRSEDTAVYYCAREYYYGSGSYYNDYFDYWGQGTLVTVSS
VL: not shown
notes: Tested as a Fab made in E. coli; VH was cloned into Plasmid A (CH1 constant region, His6 and Flag tags); The kappa VL was cloned into Plasmid C (kappa CL)

- ECL signal [14]: 1270
- ECL signal [15]: 368
- ECL signal [16]: 470
- ECL signal [17]: 383
- ECL signal [18]: 478
B3: Fab VH6-1_IGHD3-3*01_IGHJ4*01 & V4-3_IGLJ4*01 (Fab, V domains shown)
VH: QVQLQQSGPGLVKPSQTLSLTCAISGDSVSSNSAAWNWIRQSPSRGLEWLGRTYYRSKWYNDYAVSVKSRITINPDTSKNQFSLQLNSVTPEDTAVYYCAREYYDFWSGYYTDYFDYWGQGTLVTVSS
VL: QPVLTQPTSLSASPGASARLTCTLRSGINLGSYRIFWYQQKPESPPRYLLSYYSDSSKHQGSGVPSRFSGSKDASSNAGILVISGLQSEDEADYYCMIWHSSASFVFGGGTQLIIL
notes: Tested as a purified germline Fab made in E. coli; The VH was cloned into plasmid A (CH1 constant region, His6 and Flag tags) and the lambda VL into plasmid E (lambda CL)

From patent publication US20120316071A1 (published 2012)
